{
  "source": "patent US7939631B2",
  "about": "“APO-2 receptor polypeptides” (Genentech, Inc., priority 1997, dated 2011)",
  "key": {"[1]": {"test_system": "HeLa cells transfected with Apo-2", "type": "cell-based, human"}, "HeLa cells": {"test_system": "HeLa cells", "type": "cell-based, human", "details": "5 hour"}, "lymphotoxin-alpha": {"target": "T1, lymphotoxin-alpha (Homo sapiens, UniProt P01374)", "T1 sequence (P01374 35-205)": "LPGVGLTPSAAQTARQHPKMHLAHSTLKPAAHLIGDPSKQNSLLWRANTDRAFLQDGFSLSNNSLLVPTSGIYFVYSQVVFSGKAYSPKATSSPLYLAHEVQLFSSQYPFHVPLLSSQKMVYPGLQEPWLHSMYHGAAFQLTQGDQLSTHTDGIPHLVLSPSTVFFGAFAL", "assay": "BIACORE analysis of purified Apo-2 ECD", "type": "binding", "description": "(§1) The binding interaction was further analyzed by purifying Apo-2 ECD from the transfected 293 cell supernatants with anti-Flag beads (see Example 2) and then analyzing the samples on a BIACORE™ instrument."}, "Fas/Apo-1 ligand": {"target": "T2, Fas/Apo-1 ligand (Homo sapiens, UniProt P48023)", "T2 construct": "purchased Alexis Biochemicals", "T2 sequence (P48023 103-281 limits assumed)": "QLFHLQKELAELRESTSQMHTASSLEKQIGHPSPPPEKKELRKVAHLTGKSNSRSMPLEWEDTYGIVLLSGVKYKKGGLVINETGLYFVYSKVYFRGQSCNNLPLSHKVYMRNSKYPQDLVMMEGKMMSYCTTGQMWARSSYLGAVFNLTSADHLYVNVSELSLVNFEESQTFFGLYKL", "assay": "BIACORE analysis of purified Apo-2 ECD", "type": "binding", "description": "as §1"}, "TNF-alpha": {"target": "TNF-alpha (Homo sapiens, UniProt P01375)", "sequence (P01375 77-233 limits assumed)": "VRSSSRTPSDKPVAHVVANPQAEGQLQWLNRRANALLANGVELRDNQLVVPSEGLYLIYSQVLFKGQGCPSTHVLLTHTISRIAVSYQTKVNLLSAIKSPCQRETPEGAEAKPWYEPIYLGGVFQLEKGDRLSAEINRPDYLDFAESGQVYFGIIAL", "assay": "BIACORE analysis of purified Apo-2 ECD", "type": "binding", "description": "as §1"}, "Apo-2L [2]": {"target": "T3, Apo-2L (Homo sapiens, UniProt P50591)", "T3 construct": "poly-histidine; made in house", "assay": "Co-precipitation (immunoprecipitation) assay of Apo-2 ECD-Flag with His-tagged Apo-2L", "type": "binding", "details": "293 cell supernatant with Apo-2 ECD-Flag, 5 μg poly-histidine-tagged soluble Apo-2L; FIG. 3", "method": "The samples were subjected to immunoprecipitation using 25 μl anti-Flag conjugated agarose beads (Sigma) or Nickel-conjugated agarose beads (Qiagen). After a 1.5 hour incubation at 4° C., the beads were spun down and washed four times in phosphate buffered saline (PBS). […] The precipitated proteins were released by boiling the beads for 5 minutes in SDS-PAGE buffer, resolved by electrophoresis on 12% polyacrylamide gels, and then detected by immunoblot with anti-Apo-2L or anti-Flag antibody (2 μg/ml) as described in Marsters et al., J. Biol. Chem., (1997)."}, "Apo-2L [3]": {"target": "T3, Apo-2L", "assay": "Inhibition of Apo-2L activity by soluble Apo-2 ECD, apoptosis by FACS", "type": "cell-based", "details": "Apo-2L 0.5 μg/ml pre-incubated 1 hour; Apo-2 ECD 5 μg/ml with anti-Flag antibody 1 μg/ml; FIG. 4D", "method": "After a 5 hour incubation, the cells were analyzed for apoptosis by FACS (as above) (FIG. 4D)."}},
  "note": "Square brackets hold non-standard residues; d marks the D form. Peptide text beside a SMILES is read from it. Nle = CCCC[C@H](N)C(=O)O",
  "data": [
    {"compound": "z-VAD-fmk", "values": [
      {"measurement": "effect on apoptosis induction by Apo-2", "setting": "[1]", "value": "blocked apoptosis induction by Apo-2"}
    ]},
    {"compound": "cyclohexamide", "values": [
      {"measurement": "effect on level of Apo-2L-induced apoptosis", "setting": "HeLa cells", "value": "increased the level of Apo-2L-induced apoptosis"}
    ]},
    {"compound": "CCCC[C@@H](C=O)NC(=O)[C@H](CC(C)C)NC(=O)[C@H](CC(C)C)NC(C)=O", "note": "[ALLN, N-acetyl-Leu-Leu-norleucinal] (Ac-Leu-Leu-[Nle]-aldehyde)", "values": [
      {"measurement": "effect on level of Apo-2L-induced apoptosis", "setting": "HeLa cells", "value": "increased the level of Apo-2L-induced apoptosis"}
    ]},
    {"compound": "DEVD-fmk", "values": [
      {"measurement": "effect on apoptosis induction by Apo-2", "setting": "[1]", "value": "blocked apoptosis induction by Apo-2"}
    ]},
    {"compound": "Apo-2 ECD: Soluble Apo-2 extracellular domain (amino acid residues 1-184 of FIG. 1) fused to a C-terminal Flag epitope tag", "values": [
      {"measurement": "binding to lymphotoxin-alpha", "setting": "lymphotoxin-alpha", "value": "not capable of binding"},
      {"measurement": "binding to Fas/Apo-1 ligand", "setting": "Fas/Apo-1 ligand", "value": "not capable of binding"},
      {"measurement": "binding to TNF-alpha", "setting": "TNF-alpha", "value": "not capable of binding"},
      {"measurement": "complex formation with Apo-2L by co-precipitation", "setting": "Apo-2L [2]", "value": "can associate with each other"},
      {"measurement": "blocking of Apo-2L action (apoptosis in HeLa cells)", "setting": "Apo-2L [3]", "value": "capable of blocking Apo-2L action"}
    ]}
  ]
}
